The target of data set [1] is T1, MdWRKY70L (Malus domestica, UniProt A0A7S5EAY7 1-303).
T1 sequence: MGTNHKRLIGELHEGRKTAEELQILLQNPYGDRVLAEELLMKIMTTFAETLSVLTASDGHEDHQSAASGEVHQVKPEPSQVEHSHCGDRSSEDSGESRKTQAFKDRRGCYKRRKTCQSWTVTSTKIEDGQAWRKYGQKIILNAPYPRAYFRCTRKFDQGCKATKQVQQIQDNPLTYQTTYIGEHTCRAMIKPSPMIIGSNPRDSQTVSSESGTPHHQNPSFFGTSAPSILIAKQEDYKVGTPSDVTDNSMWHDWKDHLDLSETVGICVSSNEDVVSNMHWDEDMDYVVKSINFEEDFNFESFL
In words: EMSA; LightShift Chemiluminescent EMSA kit (Thermo); buffer, salt, pH and temperature not stated. The following applies: protein: recombinant; tags: GST (Results); His (EMSA Methods, pET32a); label: 3' biotin, both strands; blunt. (In EMSA bound probe runs differently from free probe, usually more slowly.)

The target of data set [2] is T1, MdWRKY70L. In words: competition; 25x, 50x, 100x cold probe vs hot probe N1; LightShift Chemiluminescent EMSA kit (Thermo); buffer, salt, pH and temperature not stated. As to conditions: protein: recombinant; tags: GST (Results); His (EMSA Methods, pET32a); blunt.
Data set [3] concerns the target T1, MdWRKY70L. Kind of data set: competition; 25x, 50x, 100x cold probe vs hot probe N3; LightShift Chemiluminescent EMSA kit (Thermo); buffer, salt, pH and temperature not stated. The following applies: protein: recombinant; tags: GST (Results); His (EMSA Methods, pET32a); blunt.

Changes are numbered by the printed parent chain.

B1: MdZAT12 W-box hot probe (dsDNA)
DNA 1: CATTGATCTGGATTTCTGTGCTGACTCAGACTCATCGTGGATGCTT
DNA 2: AAGCATCCACGATGAGTCTGAGTCAGCACAGAAATCCAGATCAATG
In the case of B1, in the data set with MdWRKY70L [1], the binding result is on record as “binds”.

B2: MdZAT12 W-box cold probe (dsDNA)
DNA 1: B1 DNA 1
DNA 2: B1 DNA 2
For B2, the binding result with MdWRKY70L [2] is “binds”.

B3: MdZAT12 W-box mutant probe (dsDNA)
DNA 1: B1 DNA 1 with T22G, A24C, T26G
DNA 2: B1 DNA 2 with A21C, T23G, A25C
Consider B3, for which the binding result in the data set with MdWRKY70L [1] is listed as “no binding”.

B4: MdSAG101 W-box hot probe (dsDNA)
DNA 1: TCTATATAAAGAGAGACATATTGACCATTCCGGTATCCTCTTCTCT
DNA 2: AGAGAAGAGGATACCGGAATGGTCAATATGTCTCTCTTTATATAGA
For the molecule B4, the binding result with MdWRKY70L [1] is recorded as “binds”.

B5: MdSAG101 W-box cold probe (dsDNA)
DNA 1: B4 DNA 1
DNA 2: B4 DNA 2
Turning to B5, the binding result in the data set with MdWRKY70L [3] is given as “binds”.

B6: MdSAG101 W-box mutant probe (dsDNA)
DNA 1: B4 DNA 1 with T22C, A24G, C26T
DNA 2: B4 DNA 2 with G21A, T23C, A25G
For B6, the binding result with MdWRKY70L [1] is recorded as “no binding”.

Source of the values: publication PMC12120888, “Phosphorylation of MdWRKY70L by MdMPK6/02G mediates reactive oxygen accumulation to regulate apple fruit senescence”.
